{
  "source": "paper PMC9270254",
  "key": {"[1]": {"target": "human IgG (human)", "assay": "SPR"}, "[2]": {"target": "human IgM (human)", "assay": "SPR"}},
  "data": [
    {"substance": "single-chain mouse globular part of C1q (from UniProt P98086 110-245; Q02105 116-246; P14106 115-253) (domain or fragment)", "values": [
      {"measurement": "Kd1 (first phase, two-exponential fit)", "setting": "[1]", "value": 6.8, "unit": "nM"},
      {"measurement": "kd1 (first phase, two-exponential fit)", "setting": "[1]", "value": 0.032, "unit": "s⁻¹"},
      {"measurement": "kd2 (second phase, two-exponential fit)", "setting": "[1]", "value": 0.0021, "unit": "s⁻¹"},
      {"measurement": "Kd1 (first phase, two-exponential fit)", "setting": "[2]", "value": 8.5, "unit": "nM"},
      {"measurement": "kd1 (first phase, two-exponential fit)", "setting": "[2]", "value": 0.029, "unit": "s⁻¹"},
      {"measurement": "kd2 (second phase, two-exponential fit)", "setting": "[2]", "value": 0.0023, "unit": "s⁻¹"}
    ]}
  ]
}
